T1: Ubiquitin conjugation factor E4 B, UBE4B (Ufd2ortholog) (human, UniProt O95155 1-1302)
T1 sequence (looked up): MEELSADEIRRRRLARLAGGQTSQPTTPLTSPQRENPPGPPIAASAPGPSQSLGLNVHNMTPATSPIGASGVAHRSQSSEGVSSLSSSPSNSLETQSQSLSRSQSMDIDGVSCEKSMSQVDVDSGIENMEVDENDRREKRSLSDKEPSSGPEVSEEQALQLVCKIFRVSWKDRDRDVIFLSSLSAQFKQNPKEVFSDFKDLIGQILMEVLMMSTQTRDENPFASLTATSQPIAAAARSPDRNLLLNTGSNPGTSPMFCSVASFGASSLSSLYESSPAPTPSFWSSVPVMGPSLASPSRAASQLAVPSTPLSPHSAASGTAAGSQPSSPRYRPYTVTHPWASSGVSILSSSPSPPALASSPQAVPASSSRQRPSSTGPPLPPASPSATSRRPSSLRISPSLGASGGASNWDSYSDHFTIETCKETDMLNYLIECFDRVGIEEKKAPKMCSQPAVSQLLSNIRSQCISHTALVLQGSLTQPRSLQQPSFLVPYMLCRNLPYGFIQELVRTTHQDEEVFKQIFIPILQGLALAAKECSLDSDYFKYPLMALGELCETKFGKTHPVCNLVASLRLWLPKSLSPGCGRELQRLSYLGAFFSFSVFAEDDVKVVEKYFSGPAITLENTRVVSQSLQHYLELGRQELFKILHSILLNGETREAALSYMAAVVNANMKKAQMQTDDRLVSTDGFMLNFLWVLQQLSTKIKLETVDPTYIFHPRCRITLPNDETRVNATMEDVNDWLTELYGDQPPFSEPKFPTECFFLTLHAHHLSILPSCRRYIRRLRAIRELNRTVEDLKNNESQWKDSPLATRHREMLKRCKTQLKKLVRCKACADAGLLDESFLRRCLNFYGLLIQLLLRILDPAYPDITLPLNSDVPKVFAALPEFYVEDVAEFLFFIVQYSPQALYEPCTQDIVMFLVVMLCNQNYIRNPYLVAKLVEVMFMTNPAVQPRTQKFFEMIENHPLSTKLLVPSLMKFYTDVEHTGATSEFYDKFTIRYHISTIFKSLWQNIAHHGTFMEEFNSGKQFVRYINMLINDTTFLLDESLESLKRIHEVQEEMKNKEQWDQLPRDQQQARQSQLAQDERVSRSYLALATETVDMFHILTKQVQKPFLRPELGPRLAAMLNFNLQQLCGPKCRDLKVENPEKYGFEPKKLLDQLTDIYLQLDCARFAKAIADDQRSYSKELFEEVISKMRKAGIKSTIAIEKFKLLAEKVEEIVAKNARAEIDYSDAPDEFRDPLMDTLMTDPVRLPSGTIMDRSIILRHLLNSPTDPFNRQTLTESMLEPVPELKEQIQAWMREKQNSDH

T2: endogenous NPL4 (human, UniProt Q8TAT6-2 2-617, limits assumed)
T2 sequence (looked up): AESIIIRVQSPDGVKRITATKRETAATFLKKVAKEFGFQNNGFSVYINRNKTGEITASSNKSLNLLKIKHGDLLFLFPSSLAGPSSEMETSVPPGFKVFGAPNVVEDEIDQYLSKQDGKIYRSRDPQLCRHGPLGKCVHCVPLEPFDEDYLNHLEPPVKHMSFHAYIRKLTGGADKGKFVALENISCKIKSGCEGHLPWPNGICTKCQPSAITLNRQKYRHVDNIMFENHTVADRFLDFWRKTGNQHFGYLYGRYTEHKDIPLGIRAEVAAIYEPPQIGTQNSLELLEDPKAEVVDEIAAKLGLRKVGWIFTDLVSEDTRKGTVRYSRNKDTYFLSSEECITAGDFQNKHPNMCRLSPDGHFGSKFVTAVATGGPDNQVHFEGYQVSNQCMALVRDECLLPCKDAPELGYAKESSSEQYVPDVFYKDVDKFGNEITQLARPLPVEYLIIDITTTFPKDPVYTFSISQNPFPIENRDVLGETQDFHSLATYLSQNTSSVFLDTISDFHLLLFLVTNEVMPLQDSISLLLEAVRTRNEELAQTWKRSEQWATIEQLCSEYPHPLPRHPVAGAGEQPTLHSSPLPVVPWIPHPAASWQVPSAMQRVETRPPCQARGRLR

B1: Flag-UBXD7 (other, UniProt O94888 1-489, looked up)
chain: MAAHGGSAASSALKGLIQQFTTITGASESVGKHMLEACNNNLEMAVTMFLDGGGIAEEPSTSSASVSTVRPHTEEEVRAPIPQKQEILVEPEPLFGAPKRRRPARSIFDGFRDFQTETIRQEQELRNGGAIDKKLTTLADLFRPPIDLMHKGSFETAKECGQMQNKWLMINIQNVQDFACQCLNRDVWSNEAVKNIIREHFIFWQVYHDSEEGQRYIQFYKLGDFPYVSILDPRTGQKLVEWHQLDVSSFLDQVTGFLGEHGQLDGLSSSPPKKCARSESLIDASEDSQLEAAIRASLQETHFDSTQTKQDSRSDEESESELFSGSEEFISVCGSDEEEEVENLAKSRKSPHKDLGHRKEENRRPLTEPPVRTDPGTATNHQGLPAVDSEILEMPPEKADGVVEGIDVNGPKAQLMLRYPDGKREQITLPEQAKLLALVKHVQSKGYPNERFELLTNFPRRKLSHLDYDITLQEAGLCPQETVFVQERN
notes: Wild-type plasmid in pCMV5B; expressed in 293 or HeLa cells and pulled down on anti-Flag beads; also called RDB 2155; not shown: N-terminal Flag tag
B2: Flag-p47 (other, UniProt O35987 1-370, looked up)
chain: MAEERQDALREFVAVTGAEEDRARFFLESAGWDLQIALASFYEDGGDEDIVTISQATPSSVSRGTAPSDNRVTSFRDLIHDQDEEEEEEEGQRFYAGGSERSGQQIVGPPRKKSPNELVDDLFKGAKEHGAVAVERVTKSPGETSKPRPFAGGGYRLGAAPEEESAYVAGERRRHSGQDVHVVLKLWKTGFSLDNGDLRSYQDPSNAQFLESIRRGEVPAELRRLAHGGQVNLDMEDHRDEDFVKPKGAFKAFTGEGQKLGSTAPQVLNTSSPAQQAENEAKASSSILINEAEPTTNIQIRLADGGRLVQKFNHSHRISDIRLFIVDARPAMAATSFVLMTTFPNKELADENQTLKEANLLNAVIVQRLT
notes: also called RDB 2148; not shown: N-terminal Flag tag
B3: endogenous UFD1 (other, human, UniProt Q92890-1 1-343, looked up)
chain: MFSFNMFDHPIPRVFQNRFSTQYRCFSVSMLAGPNDRSDVEKGGKIIMPPSALDQLSRLNITYPMLFKLTNKNSDRMTHCGVLEFVADEGICYLPHWMMQNLLLEEDGLVQLETVNLQVATYSKSKFCYLPHWMMQNLLLEEGGLVQVESVNLQVATYSKFQPQSPDFLDITNPKAVLENALRNFACLTTGDVIAINYNEKIYELRVMETKPDKAVSIIECDMNVDFDAPLGYKEPERQVQHEESTEGEADHSGYAGELGFRAFSGSGNRLDGKKKGVEPSPSPIKPGDIKRGIPNYEFKLGKITFIRNSRPLVKKVEEDEAGGRFVAFSGEGQSLRKKGRKP
B4: Flag-UBXD7ΔUBX (other, not shown: small tags and cut ends)
chain: MAAHGGSAASSALKGLIQQFTTITGASESVGKHMLEACNNNLEMAVTMFLDGGGIAEEPSTSSASVSTVRPHTEEEVRAPIPQKQEILVEPEPLFGAPKRRRPARSIFDGFRDFQTETIRQEQELRNGGAIDKKLTTLADLFRPPIDLMHKGSFETAKECGQMQNKWLMINIQNVQDFACQCLNRDVWSNEAVKNIIREHFIFWQVYHDSEEGQRYIQFYKLGDFPYVSILDPRTGQKLVEWHQLDVSSFLDQVTGFLGEHGQLDGLSSSPPKKCARSESLIDASEDSQLEAAIRASLQETHFDSTQTKQDSRSDEESESELFSGSEEFISVCGSDEEEEVENLAKSRKSPHKDLGHRKEENRRPLTEPPVRTDPGTATNHQGLPAVDSEILEMPPEKAD
notes: also called UBXD7(1-400); truncated UBXD7
B5: endogenous UBXD7 (other, human, UniProt O94888 2-489, looked up)
chain: AAHGGSAASSALKGLIQQFTTITGASESVGKHMLEACNNNLEMAVTMFLDGGGIAEEPSTSSASVSTVRPHTEEEVRAPIPQKQEILVEPEPLFGAPKRRRPARSIFDGFRDFQTETIRQEQELRNGGAIDKKLTTLADLFRPPIDLMHKGSFETAKECGQMQNKWLMINIQNVQDFACQCLNRDVWSNEAVKNIIREHFIFWQVYHDSEEGQRYIQFYKLGDFPYVSILDPRTGQKLVEWHQLDVSSFLDQVTGFLGEHGQLDGLSSSPPKKCARSESLIDASEDSQLEAAIRASLQETHFDSTQTKQDSRSDEESESELFSGSEEFISVCGSDEEEEVENLAKSRKSPHKDLGHRKEENRRPLTEPPVRTDPGTATNHQGLPAVDSEILEMPPEKADGVVEGIDVNGPKAQLMLRYPDGKREQITLPEQAKLLALVKHVQSKGYPNERFELLTNFPRRKLSHLDYDITLQEAGLCPQETVFVQERN

Assays:
[1] = biological target: T1, Ubiquitin conjugation factor E4 B, …; assay: co-IP, MudPIT MS
endogenous p97 [2] = biological target: T3, endogenous p97 (human, UniProt P55072 2-806); assay: Flag co-IP, 293 cells, MudPIT MS
T3 construct: also called VCP
T3 sequence (P55072 2-806 limits assumed): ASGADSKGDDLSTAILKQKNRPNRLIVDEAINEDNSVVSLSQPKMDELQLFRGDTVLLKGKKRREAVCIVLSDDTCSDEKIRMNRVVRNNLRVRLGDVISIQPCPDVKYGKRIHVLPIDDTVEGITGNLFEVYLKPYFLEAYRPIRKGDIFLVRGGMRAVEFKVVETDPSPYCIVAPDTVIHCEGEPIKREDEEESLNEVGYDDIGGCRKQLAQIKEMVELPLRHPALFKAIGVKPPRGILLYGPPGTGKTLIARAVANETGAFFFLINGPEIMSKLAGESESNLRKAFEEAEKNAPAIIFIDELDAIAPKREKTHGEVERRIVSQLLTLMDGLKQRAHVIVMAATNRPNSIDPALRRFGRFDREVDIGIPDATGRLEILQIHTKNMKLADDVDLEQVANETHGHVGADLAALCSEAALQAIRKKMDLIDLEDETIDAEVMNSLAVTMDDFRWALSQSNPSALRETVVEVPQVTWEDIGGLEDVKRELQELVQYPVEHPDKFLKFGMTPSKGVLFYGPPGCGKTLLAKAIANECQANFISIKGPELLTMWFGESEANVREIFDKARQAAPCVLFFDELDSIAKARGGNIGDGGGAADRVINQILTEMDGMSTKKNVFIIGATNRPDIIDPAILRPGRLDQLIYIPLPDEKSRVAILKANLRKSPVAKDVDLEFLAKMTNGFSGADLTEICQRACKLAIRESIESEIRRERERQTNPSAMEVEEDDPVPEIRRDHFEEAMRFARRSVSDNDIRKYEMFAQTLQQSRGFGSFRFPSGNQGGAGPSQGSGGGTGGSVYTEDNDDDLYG
Experimental: (§1) For immunoprecipitation experiments, the cells were lysed in buffer A (50 mM HEPES/KOH, pH 7.5; 5 mM Mg(OAc)₂; 70 mM KOAc; 0.2% Triton X-100; 10% glycerol; 0.2 mM EDTA; protease inhibitors) and incubated with anti-Flag agarose beads (Sigma) or anti-Myc sepharose beads (Covance).
(§2) Mass spectrometrical sample analysis was performed as described previously (Graumann et al., 2004) using a high-pressure liquid chromatography pump (Agilent) in line to a LCQ DecaXP electrospray ion trap mass spectrometer (ThermoFinnigan). In brief, 2-4 mg of protein extract were incubated with anti-Flag or anti-Myc beads and the immunoprecipitated proteins were eluted with saturated urea. The eluates were then proteolitically digested using sequentially endoproteinase Lys-C and trypsin. The resulting peptide mixtures were pressure-loaded onto triphasic microcapillary columns and sample separation was achieved using a chromatography program consisting of six salt steps, each followed by an organic gradient. The eluting peptides were electrosprayed into the mass spectrometer and the column eluate was continuously analyzed. One full-range mass scan ([…]) was followed by three data-dependent tandem mass spectrometry (MS/MS) spectra. Sequence database matching was performed against the IPI human database (Kersey et al., 2004) version 3.15.1 using Sequest (Eng et al., 1994) and the results were filtered with DTASelect (Tabb et al., 2002), using the parameters indicated in Graumann et al. (2004).

endogenous NPL4 [3] = biological target: T2, endogenous NPL4; assay: Flag co-IP, 293 cells, MudPIT MS
Experimental: as §1, §2

endogenous NPL4 [4] = biological target: T2, endogenous NPL4; assay: Flag co-IP, mass spectrometry and immunoblotting
Flag-p47 = biological target: B2; assay: Flag co-IP, mass spectrometry and immunoblotting
Cullin 1 = biological target: T4, Cullin 1 (human, UniProt Q13616 1-776, limits assumed); assay: Flag co-IP, HeLa cells, western blot
T4 construct: also called CUL1
T4 sequence (Q13616 whole entry): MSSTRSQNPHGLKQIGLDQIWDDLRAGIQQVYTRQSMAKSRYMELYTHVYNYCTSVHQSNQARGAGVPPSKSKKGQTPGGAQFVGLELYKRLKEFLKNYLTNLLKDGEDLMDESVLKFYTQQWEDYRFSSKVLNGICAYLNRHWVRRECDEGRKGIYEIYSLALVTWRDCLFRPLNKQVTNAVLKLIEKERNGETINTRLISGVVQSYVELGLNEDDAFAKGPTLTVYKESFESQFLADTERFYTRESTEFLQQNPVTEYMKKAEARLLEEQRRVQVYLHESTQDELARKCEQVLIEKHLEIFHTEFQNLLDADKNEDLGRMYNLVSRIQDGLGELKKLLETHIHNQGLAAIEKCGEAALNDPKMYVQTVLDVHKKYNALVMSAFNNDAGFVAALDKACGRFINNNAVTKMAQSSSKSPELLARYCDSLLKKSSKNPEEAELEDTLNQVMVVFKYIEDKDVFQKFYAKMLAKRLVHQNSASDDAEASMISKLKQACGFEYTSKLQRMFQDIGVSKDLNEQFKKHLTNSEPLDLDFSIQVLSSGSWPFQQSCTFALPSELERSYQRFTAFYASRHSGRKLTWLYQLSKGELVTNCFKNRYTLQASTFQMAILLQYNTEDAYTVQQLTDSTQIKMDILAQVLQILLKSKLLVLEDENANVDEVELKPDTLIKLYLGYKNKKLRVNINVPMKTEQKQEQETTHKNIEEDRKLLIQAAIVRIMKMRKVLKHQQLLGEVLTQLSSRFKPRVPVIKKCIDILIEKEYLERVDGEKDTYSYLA

Cullin 2 = biological target: T5, Cullin 2 (human, UniProt Q13617 1-745); assay: Flag co-IP, HeLa cells, western blot
T5 construct: also called CUL2
T5 sequence (Q13617 whole entry): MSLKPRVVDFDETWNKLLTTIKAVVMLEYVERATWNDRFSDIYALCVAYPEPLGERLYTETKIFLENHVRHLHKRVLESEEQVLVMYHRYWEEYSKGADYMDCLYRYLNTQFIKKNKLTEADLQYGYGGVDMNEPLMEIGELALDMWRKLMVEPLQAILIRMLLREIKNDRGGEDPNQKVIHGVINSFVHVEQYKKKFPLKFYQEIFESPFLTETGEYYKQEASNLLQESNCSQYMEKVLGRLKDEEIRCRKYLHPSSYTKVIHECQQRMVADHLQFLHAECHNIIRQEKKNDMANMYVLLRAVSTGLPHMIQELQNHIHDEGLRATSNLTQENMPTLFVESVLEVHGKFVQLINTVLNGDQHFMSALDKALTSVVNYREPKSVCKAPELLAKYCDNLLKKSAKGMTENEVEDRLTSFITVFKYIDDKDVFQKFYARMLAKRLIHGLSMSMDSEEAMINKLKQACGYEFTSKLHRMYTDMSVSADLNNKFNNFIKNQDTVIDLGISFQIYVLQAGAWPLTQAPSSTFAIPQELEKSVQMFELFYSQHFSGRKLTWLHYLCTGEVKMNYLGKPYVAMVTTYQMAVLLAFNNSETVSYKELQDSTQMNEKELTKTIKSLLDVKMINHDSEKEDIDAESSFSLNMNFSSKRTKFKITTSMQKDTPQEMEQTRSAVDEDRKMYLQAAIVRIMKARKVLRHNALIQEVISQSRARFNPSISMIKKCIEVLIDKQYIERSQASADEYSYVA

endogenous p97 [5] = biological target: T3, endogenous p97; assay: Flag co-IP from HeLa cells, western blot
endogenous p97 [6] = biological target: T3, endogenous p97; assay: Superdex 200 gel filtration of HeLa extracts, western blot
From the text: Luc—luciferase (C) HeLa cell extracts were fractionated on a Superdex 200 gel filtration column. Individual fractions were concentrated by TCA precipitation and subjected to western blotting using specific antibodies. All proteins were endogenously expressed.

Binder: B1
binding result [1]: no binding
sequence count (endogenous p97 [2]): 77
sequence coverage (endogenous p97 [2]): 61.2%
spectrum count (endogenous p97 [2]): 375

Binder: B2
sequence count (endogenous p97 [2]): 172
sequence coverage (endogenous p97 [2]): 82.7%
spectrum count (endogenous p97 [2]): 1610
sequence count (endogenous NPL4 [3]): 2
sequence coverage (endogenous NPL4 [3]): 6%
spectrum count (endogenous NPL4 [3]): 2
binding result (endogenous NPL4 [4]): no binding

Binder: B3
binding result (Flag-p47): no binding

Binder: B4
binding result (Cullin 1): binds
binding result (Cullin 2): binds
binding result (endogenous p97 [5]): no binding

Binder: B5
binding result (endogenous p97 [6]): binds

— patent US20090192084A1 (CALIFORNIA INSTITUTE OF TECHNOLOGY, published 2009)
